Results: article PMC4552939, “Structural Analysis of the Regulatory Domain of ExsA, a Key Transcriptional Regulator of the Type Three Secretion System in Pseudomonas aeruginosa” (PLoS ONE, 2015)

Legend:
[1] = molecular target: ExsA-L117R (Pseudomonas aeruginosa) (UniProt P26993)
[2] = molecular target: the molecule itself; assay: crystal structure; hanging-drop vapor diffusion at 25°C; 1.6M MgSO4, 0.1M MES pH 6.5, 0.1M EGTA; dimers A/A' and B/B'' made by crystallographic two-fold axes

ExsA-L117R (from UniProt P26993 1-278) (natural protein)
activation of transcription in vitro at 16, 32 and 64 nM protein, against wild-type ExsA [1]: 10 fold

B1: ExsA amino-terminal domain (ExsA-NTD), amino acids 2-178 (domain or fragment)
chain: QGAKSLGRKQITSCHWNIPTFEYRVNKEEGVYVLLEGELTVQDIDSTFCLAPGELLFVRRGSYVVSTKGKDSRILWIPLSAQFLQGFVQRFGALLSEVERCDEPVPGIIAFAATPLLAGCVKGLKELLVHEHPPMLACLKIEELLMLFAFSPQGPLLMSVLRQLSNRHVERLQLFME
notes: thermolysin product, amino acids 2-178 by LC-MS; A selenomethionine-substituted sample was also made (E. coli BL21(DE3), minimal medium), crystallised under identical conditions and used for phasing; Residues 2-10 and 166-178 (chain A) and 2-9 and 167-178 (chain B) gave no density; also called regulatory domain of ExsA; ExsA N-terminal domain protein; source: E. coli BL21(DE3) CodonPlus RIL, …
binding result [2]: binds
